Laboratory results: publication PMC9479348 (Journal of Nanobiotechnology, 2022)

Target: lysozyme (UniProt P00698)
Experiment: ELISA; phage ELISA: lysozyme immobilised in a 96-well NUNC Maxisorp plate; 1ZVH displayed on phage
Conditions: one partner purified

Chain of lysozyme (P00698 19-147): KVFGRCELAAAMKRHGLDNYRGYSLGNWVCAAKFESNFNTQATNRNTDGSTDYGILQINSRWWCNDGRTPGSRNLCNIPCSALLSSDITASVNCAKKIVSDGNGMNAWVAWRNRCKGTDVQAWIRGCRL

B1: camel nanobody 1ZVH, displayed on phage (VHH)
VHH: DVQLVESGGGSVQAGGSLRLSCAASGYIASINYLGWFRQAPGKEREGVAAVSPAGGTPYYADSVKGRFTVSLDNAENTVYLQMNSLKPEDTALYYCAAARQGWYIPLNSYGYNYWGQGTQVTVSS
notes: also called template of the ASyNAL library
B1: binds.
